Laboratory results reported in paper PMC13426413 (Science Advances, 2026).
Ends that are not written are not given here.

Tests used:
[1] = biological target: T1, human Tom70 (residues 108–608) (human, UniProt O94826 108-608); assay: ITC
T1 sequence: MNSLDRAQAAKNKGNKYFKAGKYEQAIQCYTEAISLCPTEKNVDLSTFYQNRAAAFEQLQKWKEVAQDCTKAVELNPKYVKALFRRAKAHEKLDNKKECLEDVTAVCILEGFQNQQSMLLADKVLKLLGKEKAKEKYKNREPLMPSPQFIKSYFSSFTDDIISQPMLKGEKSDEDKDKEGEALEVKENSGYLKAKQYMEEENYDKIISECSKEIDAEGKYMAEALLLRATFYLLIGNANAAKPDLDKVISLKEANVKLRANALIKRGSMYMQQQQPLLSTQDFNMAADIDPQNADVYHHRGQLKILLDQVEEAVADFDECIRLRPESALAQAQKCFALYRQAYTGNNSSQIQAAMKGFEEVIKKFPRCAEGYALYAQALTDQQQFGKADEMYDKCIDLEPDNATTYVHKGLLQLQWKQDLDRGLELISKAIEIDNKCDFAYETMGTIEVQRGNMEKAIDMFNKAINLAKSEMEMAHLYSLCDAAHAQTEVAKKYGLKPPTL

[2] = biological target: Tom70:Hsp90_(EEVD) complex (human, UniProt O94826 108-608); assay: ITC
[3] = biological target: T2, ^19F-labeled Tom70 (5F-tryptophan, residues 108–608) (human, UniProt O94826 108-608, 5-fluoro-tryptophan at W169 and W523); assay: NMR titration
T2 sequence: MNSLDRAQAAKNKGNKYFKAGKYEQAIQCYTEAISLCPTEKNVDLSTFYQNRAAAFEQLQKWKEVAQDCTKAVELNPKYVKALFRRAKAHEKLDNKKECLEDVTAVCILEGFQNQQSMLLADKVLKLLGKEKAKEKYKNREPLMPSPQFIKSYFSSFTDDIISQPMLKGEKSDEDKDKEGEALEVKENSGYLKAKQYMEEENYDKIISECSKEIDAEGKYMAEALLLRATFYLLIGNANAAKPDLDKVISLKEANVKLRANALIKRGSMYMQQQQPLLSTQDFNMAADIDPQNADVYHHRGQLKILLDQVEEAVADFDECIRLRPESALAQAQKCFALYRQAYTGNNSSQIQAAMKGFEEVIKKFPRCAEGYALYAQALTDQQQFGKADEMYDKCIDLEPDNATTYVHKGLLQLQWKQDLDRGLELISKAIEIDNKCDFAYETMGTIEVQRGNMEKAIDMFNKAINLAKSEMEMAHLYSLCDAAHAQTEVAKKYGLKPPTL

[4] = biological target: T1, human Tom70 (residues 108–608); assay: cryo-EM structure
[5] = biological target: Tom70:Orf9b_(Helix) complex (human | SARS-CoV-2, UniProt O94826 108-608); assay: ITC
[6] = biological target: ^19F Tom70:Orf9b_(Helix) complex (human | SARS-CoV-2, UniProt O94826 108-608, 5-fluoro-tryptophan at W169 and W523); assay: NMR titration

Measured: binding result

B1: Orf9b_(Helix) peptide (peptide)
peptide: IILRLGSPLSLNMARKTLNSLEDKAFQLTPIAVQY
binds: [1] | [2] | [3]

B2: Hsp90_(EEVD) peptide (peptide)
peptide: YDTSRMEEVD-OH
binds: [4] | [5] | [6]
